# Reference: publication PMC9279676, “ERK2 MAP kinase regulates SUFU binding by multisite phosphorylation of GLI1” (Life Science Alliance, 2022)
# B1: GLI1_(1-232), wild type, 35S-radiolabeled [modified: [35S]-methionine label; [35S]-methionine label] [human] / GST-SUFU (fusion of GST to full-length human SUFU) [human] (parent complex)
# chain 1: MFNSMTPPPISSYGEPCCLRPLPSQGAPSVGTEGLSGPPFCHQANLMSGPHSYGPARETNSCTEGPLFSSPRSAVKLTKKRALSISPLSDASLDLQTVIRTSPSSLVAFINSRCTSPGGSYGHLSIGTMSPSLGFPAQMNHQKGPSPSFGVQPCGPHDSARGGMIPHPQSRGPFPTCQLKSELDMLVGKCREEPLEGDMSSPNSTGIQDPLLGMLDGREDLEREEKREPESV
# chain 2: MAELRPSGAPGPTAPPAPGPTAPPAFASLFPPGLHAIYGECRRLYPDQPNPLQVTAIVKYWLGGPDPLDYVSMYRNVGSPSANIPEHWHYISFGLSDLYGDNRVHEFTGTDGPSGFGFELTFRLKRETGESAPPTWPAELMQGLARYVFQSENTFCSGDHVSWHSPLDNSESRIQHMLLTEDPQMQPVQTPFGVVTFLQIVGVCTEELHSAQQWNGQGILELLRTVPIAGGPWLITDMRRGETIFEIDPHLQERVDKGIETDGSNLSGVSAKCAWDDLSRPPEDDEDSRSICIGTQPRRLSGKDTEQIRETLRRGLEINSKPVLPPINPQRQNGLAHDRAPSRKDSLESDSSTAIIPHELIRTRQLESVHLKFNQESGALIPLCLRGRLLHGRHFTYKSITGDMAITFVSTGVEGAFATEEHPYAAHGPWLQILLTEEFVEKMLEDLEDLTSPEEFKLPKEYSWPEKKLKVSILPDVVFDSPLH
# Variants of: B1
# Experiment: GST-SUFU pull-down binding assay with 35S-radiolabeled in vitro-translated GLI1; parent: 8 nM
row,Kd,Variant
1,67 nM,chain 1 S102E
2,21 nM,chain 1 S130E
